The RNAGym collection of RNA variant scans (doi:10.1073/pnas.2313332121)

B1: TPR t1 (parent)
chain: GACCAAUCUGCCCUCAGAGCUCGAGAACAUCUUCGGAUGCAGAGGAGGCAGGCUUCGGUGGCGCGAUAGCGCCAACGUCCUCAACCUCCAAUGCAUCCCACCACAUGAUGAUGCCUGAAGAGCCUUGGUUUUUUG

Variants of: B1
Assay: polymerase ribozyme fitness, log enrichment relative to wild type (log ratio); higher = more active; in vitro selection for triplet polymerase activity
Outline: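 PCR was used to build mutant libraries for each subunit of a heterodimeric triplet polymerase ribozyme, which were then transcribed. A single in vitro selection round, in triplicate, used a frozen incubation at −7 °C and recovered extended constructs by gel excision, streptavidin beads and RT-PCR. Fitness is the logarithm of genotype enrichment relative to wild-type enrichment, averaged over replicates with inverse-variance weights. The logarithm is base 2, and after Illumina sequencing only genotypes with ≥10 input reads and ≥1 read per output were kept.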

Row | Variant | polymerase ribozyme fitness (log ratio)
1 | G39U G117U A118C | -4.29
2 | A37C C62G G120U U125G U130C | -3.18
3 | C40A C56U | -0.58
4 | A37U C76U | -0.3
5 | G39C C56G | -1.53
6 | G39A G69C C124U | -0.485
7 | A37U G60A C101U | -0.477
8 | A37C A43U C49G | -3.33
9 | A37U G51U G77A A91U | -6.95
10 | C40A C56U U87A | -1.61
11 | A37U A46U C64U C115A | -3.03
12 | G39A G51U A83G A95C | -3.53
13 | G39U U92C | -1.97
14 | G36U U55G C89G G113U | -4.27
15 | A37G U132C | -1.86
16 | G36U U112G G113U | -3.55
17 | C40A C56G G61A | -4.03
18 | G39C G69A C115U G120A | -6.08
19 | A37G C114A | -1.28
20 | G39A A66U C123U | -0.175
21 | C40A C49U | -2.52

Row | Variant | polymerase ribozyme fitness (log ratio)
22 | G39U G45U C73G | -2.79
23 | A37U G44C C53G U55C G61A C89U G117C | -4.88
24 | G36U U125A U133A | -2.46
25 | G39C C114U | -1.75
26 | G39A G113C C124G | -1.58
27 | G39U A41U | -2.97
28 | G36U C101A | -2.53
29 | G39A C72A A91U C94A | -2.84
30 | A37U A50C G63U C79A C80G G107U G117C | -6.62
31 | U38C C53G U59A U106A | -0.127
32 | G36U C53G C56A C72G | -3.23
33 | A37U C73G | -1.27
34 | G36U G52A C97U G110A | -2.04
35 | G39U G71U | -1.16
36 | A37G C76U | -1.3
37 | G39U G117U | -3.23
38 | G36U C56U C115G | -3.57
39 | G39U G77C | -1.76
40 | G39C G110A | -1.82
41 | G36U U96A | -2.69
42 | G36U G39U G44A | -4.17

Row | Variant | polymerase ribozyme fitness (log ratio)
43 | A37U G44A | -2.19
44 | G39U G69U C73A C124U | 0.671
45 | G39U G61A C85U | -0.878
46 | A37G C88A G113U | -5.31
47 | G39A A95G C115A | -0.556
48 | A37C U54A C64U U109A | -6.92
49 | G36U G60U A111U | -2.87
50 | G39A G63C C72A | -4.54
51 | G39C G48U G57C | -1.92
52 | G36U U81A | -2.11
53 | A37C A46C C124G | 0.609
54 | A37G C104G | -6.69
55 | A37U G120A | 1.2
56 | G36U A121G | 0.373
57 | G39A G113C | -2.69
58 | U38G G52A C62U C114A | -3.2
59 | G36U A118U | -1.08
60 | A37U C40U A50C G51C A74U U109A U131G | -5.36
61 | A37U A111U | -3.3
62 | A37U G69U U125C | -3.4
63 | A37U C40A G69C U130A | -3.51

Row | Variant | polymerase ribozyme fitness (log ratio)
64 | C40A C70A | -2.89
65 | G36U C123U | 0.205
66 | A37U G47U U55G C114U | -3.49
67 | G39U C53A G63U U126A | -5.66
68 | G36U U130G | -2.05
69 | A37C G71U C101A G127C | -2.36
70 | A37C G45C C72U C104G C115G | -7.48
71 | C40A A46U C114A | -4.55
72 | G36U C72G | -1.68
73 | U38G G39U U54G G69U U87A G113C | -4.25
74 | U38C G48U A68G G122A C123U | -3.71
75 | A37C C104A | -1.22
76 | C40A C72A U81A A119U | -3.46
77 | A37C A91G | -2.03
78 | A37G C94G | -2.1
79 | G39A G42A | -2.67
80 | G39U C56A A84C G113U | -4.13
81 | G39A A83U | -0.65
82 | U38A G61U | -0.881
83 | A37U A50G G52A A111G G117A | -2.93
